Experimental data reported in the DeepSol protein solubility set.

Test: soluble on expression in E. coli; label from the status in PepcDB or PDB records
For “QVQLVESGGGSVQAGGSLRLSCAASGFTYSRKYMGWFRQAPGKEREGVAAIFIDNGNTIYADSVQGRFTISQDNAKNTVYLQMNSLKPEDTAMYYCAASSRWMDYSALTAKAYNSWGQGTQVTVSSRGRHHHHHH”, the “soluble on expression in E. coli” value was “soluble”. With “MSGAIYRCMAIASEPLDALIIGAGHNGLVCAAYLARAGKRVLVLEAREVVGGAAVTEEFHPGFRNSVAAYTVSLLQPRVIADLALERHGLRVVPRRINNFLPLPNGDYLLAGAGRTAQDVARFSARDAAALPAYEARLEQLADVLRALALQPPPDVTDGGWLQALPQLWRAGKLGLQLQGLPLTLRQELLDLFTISAAEYLDRWFESAPIKALFGFDGIVGNYASPHTPGTAYVLLHHVFGQSNGVKGAWGHAIGGMGAITQAMAASAREYGAQLRTGCAVERVLVEQGHAVGVVTTAGETVRARAVVANVNPKLLYQRLMRPDDVPATTRERIAHYRCGSGTFRMNVALSRLPDFAALPGNGDHLTAGIILAPSLDYMDRAWHDARAFGWSREPVVELLIPSTLDDTLAPPGQHVASLFCQHVAPQLPDGRRWDDHREEVADLMIATVERYAPGFAASVLGRQVLSPLDLERMFGLVGGDIFHGALSLNQLFSARPLLGQGAYRGAVPGLYLCGSGTHPGGGVTGAPGHNAARVILGGLEHHHHHH” the “soluble on expression in E. coli” value was “not soluble”. With “MGSDKIHHHHHHMSRRHYNLPPLTTLTAFEAAARHLSFKDAAKELSVTPGAVSHQVKALEGELGVALFRRKHRGVDLTVPGQTLYDTLAGSLTRISQSLQSIRDQSSAGVVTVGSTTAMAAMWLSPAVIRFWRDHPEININQVVRDRAFTTSAELDLYIWYGREKDQRLDQFPLYRDRLLPVAAPERAAELAGADLDVLASQRLIHLEGDDISWTKWHDWFRQLGYSGPVASGIRVNNYSIALQAARDGAGLTLGWERLISPLITQGDLAIIGPHVLPAPERFFLVSKPDEELTPSARLLRDWIIEEASQITDEPC” the “soluble on expression in E. coli” value was “not soluble”. In the case of “MNRYRQLAELFKTQIQQNTWRAGEKLPSVRVTSRNHSVSAGTVLQAYQLLEAQGWVAAKPQSGYFVTAELDRLEPSPPATSVYRSNINDELYDYLKNQASPDAMKFGSAFPDPALFPLDALNRNLASSGRKMGPETLLDNLPPGSESLRRLIAQRYIQQGMVLTHDDIVITSGALEALNLSLQAVTQPGDTIVVESPTFYGALQAIERLGLKAIEISVDPRIGHSLQQIEAAFTDHDVRACWLMTNFHNPTGMSLNDEQKQRIVELADKHDVYLIEDDVYSELYFSNKKPSSLRTFDTQDRVLHCGSFSKSLCPGYRLGWVVNKRFNEHLQKLQLISTLSGSAPIQQGIAHYLQNDSYDNHLRKLRKNLEQRQSTFIELIGKYFPKSIHYTQPEGGYFLWVELPESKCGKAIYQKLLEDNITVAFGKLFSVGTDYENYLRLNTSLPCNDELEEAVKTIGELLH”, the “soluble on expression in E. coli” value is reported as “not soluble”. For “SMHFVQQKVKVFRAADPLVGVFLWGVAHSINELSQVPPPVMLLPDDFKASSKIKVNNHLFHRENLPSHFKFKEYCPQVFRNLRDRFGIDDQDYLVSLTRNPPSESEGSDGRFLISYDRTLVIKEVSSEDIADMHSNLSNYHQYIVKCHGNTLLPQFLGMYRVSVDNEDSYMLVMRNMFSHRLPVHRKYDLKGSLVSREASDKEKVKELPTLRDMDFLNKNQKVYIGEEEKKIFLEKLKRDVEFLVQLKIMDYSLLLGIHDIIRGSEPEEEAPVREDESEVDGDCSLTGPPALVGSYGTSPEGIGGYIHSHRPLGPGEFESFIDVYAIRSAEGAPQKEVYFMGLIDILTQYDAKKKAAHAAKTVKHGAGAEISTVHPEQYAKRFLDFITNIFA”, the “soluble on expression in E. coli” value was “soluble”. For “MKKPVHDMRQHIIDVARSLMTNKGYTAVGLAEVLITAGVPKGSFYYYFKSKEEFGQALLEEYFSEYLGRVDALMARPGTGAERLLAYFMYWSETQGTDLPEGKCLVVKLGAEVCDLSEDMRCVLEVGTAKIIQRISACVEMGVSDGSIHPEGDHQGFAESLYQLWLGASLLVKVNKSTESFDKALNMTKRLLK”, the “soluble on expression in E. coli” value was “not soluble”. For “NDEDCRNIYRYSPKDRKFEKLNLETDVTSAFAMSENNPSLAAYIGQGCYNAGVAYVYDLKKKTSRLIADPMKPTLERIELGEMKPWNFTASDGTEIKGMMCLPPSFDPNKKYPLIVYYYGGTTPTERGISNPYCAQLFASRDYVVYVIQPSGTIGFGQEFSARHVNAWGKRTADDIIEGTKQFCKEHPFVNDKKIGCLGASYGGFMTQYLQTQTDIFAAAVSHAGISNVTSYWGEGYWGYGYNAIAAADSYPWNNPELFTKQGSLFNADKINTPLLLLHGTVDTNVPIGESIQLFNALKILGKTVEFITVDGENHFIADYPKRMQWHNSIMAWFARWLQ”, the “soluble on expression in E. coli” value was “not soluble”. In the case of “EETDESNDMRPLFDTILKYTPAPSGSADETLQLQISQLDYDNYTGRLGIGRILNGRIKPGQTVAVMNHDQQIAQGRINQLLGFKGLERVPLEEAEAGD”, the “soluble on expression in E. coli” value is reported as “not soluble”. In the case of “MGSSHHHHHHGGTGENLYFQGGSGKNYFYIPIADDMHCHLRQGDMLDFTVNSIRRGGCNRVLVMPNTHPIISTCSDAQKYLYQLKSRDDDIEYLMTLYLNKNTDENDILSNYYKCNLQGVKIYPSNVTTNSSDGITSLEPYYKVFHALEKLNKSIHIHCEEPNINPLYAEEKYLPHIHDLAIKFPGLNIVLEHISSSESINVIKEFRNVAGSITPHHLYLTIDDVVNMDIYDHAIDNTYIEKYIKNTYHYCKPLPKLLEDKIALQDVIKDDFPRVFLGSDSAPHYKVMKRKPYYKPGIYTQPFLINYVAHILNKFDALDKMENFTSKNASLFLNLAEKKKLAKYYICVEKHPFKLPREYNGVVPFLAGKTLDYDIHYVSKF”, the “soluble on expression in E. coli” value is reported as “not soluble”. For “MAHHHHHHMEALETLRSIAPVSSTEEIQAMIKSAKNAREVRMVLERIVYTHHLCFDLLNGHGYRVAVLQTLTAVAPHASCMHEWFDCVARFRRLGFVLTRTYAAEGFTTIRQWLSHEFFHRGRSPSLVTEGTAHIKELMQWCLEDRLVFDHVLYTRIVFLLTMIVSYLDRQNLYRASFPEDFAKRDGIVVEWIVTNERCVDFDECVLQCDAVMEELLEQMRQDIPSRPPFSFMYRLADYYFATDNVEKMIAVMEDAESYGVSVAESTTAKLMQMACAFNSPQVPELLLRWRVLPPQCVLATPDMSRLLFFYSRSGGGLPCPHCGEAYNHRNVSVYCWLQTPPHQRQCPALRKARVQKGELEESRELPQNADWSAQAFGLFELSRARAIEWTAVEWRGFLLCCIFSPRAMEAKALMDQYLDVTEMDDFLRAACIRLLRHHAPAEAWPTLKKWKQQQCNMSPIALQEALMAASMVADAATRLEHMKAVWQLLLEKDSYVMPLTRRFYQRRMEELATSYAAAAASGDGKESQGGLATEREEAQLMQRVVEMQPRHVSLLDMKDSAADFVVGTRRKNVYRPR”, the “soluble on expression in E. coli” value was “not soluble”. For “DRHVDTHSEVLIFEVIPADDFLQQQLQITVQDRVWHVKRVRYRKQKPMALEETWMPLALFPDLTWQVMENSKYHFIEEVKKMVIDRSEQEIIPLMPTEEMSRLLNISQTKPILEKVSRGYLVDGRVFEYSRNAFNTDDYK”, the “soluble on expression in E. coli” value was “not soluble”. For “YIGLVNSFAQKKKLSVNYEQCEPNSELPQRFICKCKIGQTMYGTGSGVTKQEAKQLAAKEAYQKLLKSPPKTAGT”, the “soluble on expression in E. coli” value was “soluble”. With “MDFQIEEDRLGMRIQSETIELTKDEKGVVGISIGGGGPYCPCVYVVQVFDKSPAFKDGRIRCGDEIVAINGITVKGERKSAVAQLIQVSLNPVKITINKLEEANTKGKTLDILIKKVKHKVVEFVDQDSADALGLSRAILTNDPLAEKEKILEENAEFYRHLVAYFGDMFQYQQKISECQKEFGSIFCDLAAHEKQQTANEAFSSFGDKHRMIAKKQSESAVPLQKMVSDLQVYIDHVVPDTRLTIKKYLDVKYEYLSYCLKLKEMDDEEVEFVAIQEPLYRVETGNYEYRVMLRCRQECRARFMKMRDDVMVKIELLDQKHVRDIAQHLAIFAKTMAKCQQECAEILKERIDVPIEIDLEQLNLNMNTSDGKANGEEEMGQDAIVLNDNPLEGDLIDVNDIGSSTEFNEPRISLRRDSQNDTSQPLLGAPDSPLEELSLIDIS” the “soluble on expression in E. coli” value was “not soluble”. In the case of “MGMDQSRLMSGAAGGALVLMGLKKRGVLGLLMTVGGGYLAYKAATGKDPVMEAAGLTGSAGAAKPIFVEHSIVIDRPAQQVYDYWRKLENLPQIMSHLESVTVLDDKRSRWVAKAPLGTHVEWEAEVVNDKPGERIGWHSLPGATVDNAGSVQFESLPDDKTRVHVALSYRPPAGPLGAAVAKLFGEEPSQQIAEDLQKFKATFEGLEHHHHHH”, the “soluble on expression in E. coli” value is reported as “soluble”.
